Results published in IntAct's records for PubMed 24464040.

Key:
kap3_rat Prkar2b [1] = target: kap3_rat Prkar2b (UniProt P12369)
kap3_rat Prkar2b [2] = target: kap3_rat Prkar2b (UniProt P12369); remark: listed apart in the source

Sequence of kap3_rat Prkar2b (P12369 whole entry): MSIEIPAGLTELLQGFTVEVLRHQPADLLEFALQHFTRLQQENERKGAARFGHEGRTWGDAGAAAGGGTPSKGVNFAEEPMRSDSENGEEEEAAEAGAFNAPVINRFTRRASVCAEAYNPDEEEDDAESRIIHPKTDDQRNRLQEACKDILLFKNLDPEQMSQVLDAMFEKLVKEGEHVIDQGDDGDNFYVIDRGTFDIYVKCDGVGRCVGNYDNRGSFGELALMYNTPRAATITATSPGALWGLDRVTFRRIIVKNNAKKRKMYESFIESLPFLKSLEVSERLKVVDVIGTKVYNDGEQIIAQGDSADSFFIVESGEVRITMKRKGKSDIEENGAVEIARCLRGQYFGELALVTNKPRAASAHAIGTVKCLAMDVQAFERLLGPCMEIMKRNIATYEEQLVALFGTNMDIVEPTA

| Substance | effect of a mutation on the interaction (kap3_rat Prkar2b [1]) | effect of a mutation on the interaction (kap3_rat Prkar2b [2]) |
| --- | --- | --- |
| Leucine-rich repeat serine/threonine-protein kinase 2 (Homo sapiens), Q5S007 G2385R | increasing interaction | – |
| Leucine-rich repeat serine/threonine-protein kinase 2 (Homo sapiens), Q5S007 R1441C | – | decreasing interaction |
